Measured values as given in publication PMC8163975 (2021).
Where two headings read alike, the source gives them in different places.

T1: RAP1B•mGppNHp (human, UniProt P61224 1-184)
T1 chain: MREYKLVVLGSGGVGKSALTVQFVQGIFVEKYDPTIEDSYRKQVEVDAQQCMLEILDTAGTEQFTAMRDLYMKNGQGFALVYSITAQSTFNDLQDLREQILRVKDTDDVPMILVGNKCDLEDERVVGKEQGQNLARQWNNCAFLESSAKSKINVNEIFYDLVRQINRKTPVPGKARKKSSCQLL

T2: RAP2A•mGppNHp (human, UniProt P10114 1-183)
T2 chain: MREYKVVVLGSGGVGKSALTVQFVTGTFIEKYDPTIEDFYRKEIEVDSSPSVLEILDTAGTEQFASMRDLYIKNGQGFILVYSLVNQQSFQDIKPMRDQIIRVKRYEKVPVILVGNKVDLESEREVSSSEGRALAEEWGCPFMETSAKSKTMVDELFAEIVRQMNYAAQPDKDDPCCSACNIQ

T3: RRAS1•mGppNHp (human, UniProt P10301 1-218)
T3 chain: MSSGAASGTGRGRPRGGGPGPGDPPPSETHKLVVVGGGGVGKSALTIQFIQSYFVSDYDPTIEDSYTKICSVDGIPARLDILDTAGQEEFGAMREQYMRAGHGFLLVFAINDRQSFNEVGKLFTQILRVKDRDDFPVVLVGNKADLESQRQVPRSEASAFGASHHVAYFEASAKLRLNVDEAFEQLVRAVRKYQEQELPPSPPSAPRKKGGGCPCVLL

T4: RALA•mGppNHp (human, UniProt P11233 1-206)
T4 chain: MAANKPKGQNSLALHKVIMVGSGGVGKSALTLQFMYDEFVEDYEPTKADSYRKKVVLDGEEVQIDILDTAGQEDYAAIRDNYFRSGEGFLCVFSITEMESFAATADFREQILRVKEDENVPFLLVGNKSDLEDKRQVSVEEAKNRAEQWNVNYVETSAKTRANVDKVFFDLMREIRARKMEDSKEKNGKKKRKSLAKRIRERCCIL


Legend:
Assay in all cases: FP
[1] = target: T1, RAP1B•mGppNHp
[2] = target: T2, RAP2A•mGppNHp
[3] = target: T5, RIT1•mGppNHp (human, UniProt Q92963 1-219)
[4] = target: RHEB1•mGppNHp (human, UniProt Q15382 1-184)
[5] = target: T3, RRAS1•mGppNHp
[6] = target: T4, RALA•mGppNHp
[7] = target: HRAS•mGppNHp (human, UniProt P01112 1-189)
[8] = target: T5, RIT1•mGppNHp; remark: listed apart in the source

T5 sequence (Q92963 whole entry): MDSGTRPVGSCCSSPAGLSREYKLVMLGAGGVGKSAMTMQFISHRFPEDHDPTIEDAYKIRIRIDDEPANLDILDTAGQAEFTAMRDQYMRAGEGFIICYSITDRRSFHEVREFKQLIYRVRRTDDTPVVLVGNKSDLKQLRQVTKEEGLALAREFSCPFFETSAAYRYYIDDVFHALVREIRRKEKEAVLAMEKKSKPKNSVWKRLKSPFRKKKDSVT
Chain of RHEB1•mGppNHp (Q15382 whole entry): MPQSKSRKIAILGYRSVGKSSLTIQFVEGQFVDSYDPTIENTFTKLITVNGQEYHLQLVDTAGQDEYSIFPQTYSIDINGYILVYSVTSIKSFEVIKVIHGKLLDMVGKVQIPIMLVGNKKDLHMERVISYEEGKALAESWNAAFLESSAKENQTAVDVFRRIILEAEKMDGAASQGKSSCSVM

Row | Binder | Kd [1] | Kd [2] | Kd [3] | Kd [4] | Kd [5] | Kd [6] | Kd [7] | Kd [8]
1 | RASSF1 RA domain, MBP fusion (domain or fragment) RGTSVRRRTSFYLPKDAVKHLHVLSRTRAREVIEALLRKFLVVDDPRKFALFERAERHGQVYLRKLLDDEQPLRLRLLAGPSDKALSFVLKENDS | 26 µM | 22 µM | 136 µM | 37 µM | 33 µM | 18 µM |  | 
2 | RASSF4-to-5 variant (RASSF4 RA domain with RASSF5 hotspot residues), MBP fusion (domain or fragment) YNHKTSVFTPADGIKTLVRVNSTMTTLQVLTLLLNKFRVEDGPSEFALYIVHESGERTKLKDCEYPLISRILHGPCEKIARIFLMEADL |  |  |  |  |  |  | 10 µM | 170 µM
